The values below are quoted from earlier work in paper PMC7226360.

As a reminder, the Kd is the equilibrium constant for the complex coming apart.

This data set concerns the target NEDD8 (Homo sapiens) (UniProt Q15843).

Chain of NEDD8 (Homo sapiens) (Q15843 1-76): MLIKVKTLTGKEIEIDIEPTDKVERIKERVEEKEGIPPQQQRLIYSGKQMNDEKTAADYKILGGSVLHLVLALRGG
Chain of KHNYN 627-678 (O15037 627-678): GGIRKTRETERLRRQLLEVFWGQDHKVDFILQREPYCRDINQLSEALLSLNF

On to KHNYN 627-678 (from UniProt O15037), for which the Kd is 24 µM.
